# T1: human IL-33 (human, Biotinylated in Example 2; the site is not stated.)
# T1 chain: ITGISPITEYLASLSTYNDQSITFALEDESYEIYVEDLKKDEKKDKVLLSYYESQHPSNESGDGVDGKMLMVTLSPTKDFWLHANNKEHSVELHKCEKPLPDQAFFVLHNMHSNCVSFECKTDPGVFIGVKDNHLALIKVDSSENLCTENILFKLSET
# T2: cynomolgus IL-33 (cynomolgus monkey, UniProt A0A2K5W3I1 112-269)
# T2 construct: also called cyno IL-33; cynomolgus monkey IL-33
# T2 sequence: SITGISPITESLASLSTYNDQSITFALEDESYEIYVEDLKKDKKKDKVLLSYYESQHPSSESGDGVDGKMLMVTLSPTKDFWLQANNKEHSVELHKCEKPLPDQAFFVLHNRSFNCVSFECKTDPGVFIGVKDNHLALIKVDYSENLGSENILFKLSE
# Columns and labels:
# human IL-33 [1] = biological target: T1, human IL-33; test: cell-based or functional assay
# cynomolgus IL-33 = biological target: T2, cynomolgus IL-33; test: MSD-SET solution equilibrium titration, 37 C
# human IL-33 [2] = biological target: T1, human IL-33; test: MSD-SET solution equilibrium titration, 37 C
# human IL-33 [3] = biological target: T1, human IL-33; test: cell-based or functional assay
# human IL-33 [4] = biological target: T1, human IL-33; test: cell-based or functional assay
binder,measurement,setting,value
"22A06-458 (antibody, human IgG1, kappa) heavy: QVQLVQSGAEVKKPGASVKVSCKASGYTFISYGMHWVRQAPGQGLEWMGEINPHGGSTSYAQKFKGRVTMTRDTSTSTVYMELSSLRSEDTAVYYCARPSAAYSHYLGIDLWGRGTLVTVSSASTKGPSVFPLAPSSKSTSGGTAALGCLVKDYFPEPVTVSWNSGALTSGVHTFPAVLQSSGLYSLSSVVTVPSSSLGTQTYICNVNHKPSNTKVDKKVEPKSCDKTHTCPPCPAPELLGGPSVFLFPPKPKDTLYITREPEVTCVVVDVSHEDPEVKFNWYVDGVEVHNAKTKPREEQYNSTYRVVSVLTVLHQDWLNGKEYKCKVSNKALPAPIEKTISKAKGQPREPQVYTLPPSRDELTKNQVSLTCLVKGFYPSDIAVEWESNGQPENNYKTTPPVLDSDGSFFLYSKLTVDKSRWQQGNVFSCSVMHEALHNHYTQKSLSLSPGK light: DIQMTQSPSSVSASVGDRVTITCRASQGISSWLAWYQQKPGKAPKLLIYAASRLQSGVPSRFSGSGSGTDFTLTISSLQPEDFATYYCQQANVFPLTFGGGTKVEIKRTVAAPSVFIFPPSDEQLKSGTASVVCLLNNFYPREAKVQWKVDNALQSGNSQESVTEQDSKDSTYSLSSTLTLSKADYEKHKVYACEVTHQGLSSPVTKSFNRGEC","IC50, inhibition of 10 ng/mL IL-33/IL-12 induced IFN-γ secretion from whole blood, pre-complexed, Mean",human IL-33 [1],1.95 nM
same,"IC50, inhibition of 10 ng/mL IL-33/IL-12 induced IFN-γ secretion from whole blood, pre-complexed, donor #91232",human IL-33 [1],0.63 nM
same,"IC50, inhibition of 10 ng/mL IL-33/IL-12 induced IFN-γ secretion from whole blood, pre-complexed, donor #91845",human IL-33 [1],2.72 nM
same,"IC50, inhibition of 10 ng/mL IL-33/IL-12 induced IFN-γ secretion from whole blood, pre-complexed, donor #92023",human IL-33 [1],1.88 nM
same,"IC50, inhibition of 10 ng/mL IL-33/IL-12 induced IFN-γ secretion from whole blood, pre-complexed, donor #92257",human IL-33 [1],0.81 nM
same,"IC50, inhibition of 10 ng/mL IL-33/IL-12 induced IFN-γ secretion from whole blood, pre-complexed, donor #92258",human IL-33 [1],3.72 nM
same,"pIC50, inhibition of 10 ng/mL IL-33/IL-12 induced IFN-γ secretion from whole blood, pre-complexed, Mean",human IL-33 [1],8.8
same,"pIC50, inhibition of 10 ng/mL IL-33/IL-12 induced IFN-γ secretion from whole blood, pre-complexed, donor #91232",human IL-33 [1],9.19
same,"pIC50, inhibition of 10 ng/mL IL-33/IL-12 induced IFN-γ secretion from whole blood, pre-complexed, donor #91845",human IL-33 [1],8.56
same,"pIC50, inhibition of 10 ng/mL IL-33/IL-12 induced IFN-γ secretion from whole blood, pre-complexed, donor #92023",human IL-33 [1],8.72
same,"pIC50, inhibition of 10 ng/mL IL-33/IL-12 induced IFN-γ secretion from whole blood, pre-complexed, donor #92257",human IL-33 [1],9.08
same,"pIC50, inhibition of 10 ng/mL IL-33/IL-12 induced IFN-γ secretion from whole blood, pre-complexed, donor #92258",human IL-33 [1],8.42
same,Kd,cynomolgus IL-33,0.0565 nM
same,Kd,human IL-33 [2],0.0135 nM
same,"IC50, inhibition of 30 ng/mL IL-33 induced IFN-γ secretion from whole blood, non-pre-complexed, Mean",human IL-33 [3],1.57 nM
same,"IC50, inhibition of 30 ng/mL IL-33 induced IFN-γ secretion from whole blood, non-pre-complexed, donor #32871",human IL-33 [3],0.97 nM
same,"IC50, inhibition of 30 ng/mL IL-33 induced IFN-γ secretion from whole blood, non-pre-complexed, donor #90237",human IL-33 [3],2.6 nM
same,"IC50, inhibition of 30 ng/mL IL-33 induced IFN-γ secretion from whole blood, non-pre-complexed, donor #91680",human IL-33 [3],1.6 nM
same,"IC50, inhibition of 30 ng/mL IL-33 induced IFN-γ secretion from whole blood, non-pre-complexed, donor #91955",human IL-33 [3],0.48 nM
same,"IC50, inhibition of 30 ng/mL IL-33 induced IFN-γ secretion from whole blood, non-pre-complexed, donor #91986",human IL-33 [3],3.04 nM
same,"IC50, inhibition of 30 ng/mL IL-33 induced IFN-γ secretion from whole blood, non-pre-complexed, donor #92251",human IL-33 [3],0.74 nM
same,"pIC50, inhibition of 30 ng/mL IL-33 induced IFN-γ secretion from whole blood, non-pre-complexed, Mean",human IL-33 [3],8.89
same,"pIC50, inhibition of 30 ng/mL IL-33 induced IFN-γ secretion from whole blood, non-pre-complexed, donor #32871",human IL-33 [3],9.01
same,"pIC50, inhibition of 30 ng/mL IL-33 induced IFN-γ secretion from whole blood, non-pre-complexed, donor #90237",human IL-33 [3],8.58
same,"pIC50, inhibition of 30 ng/mL IL-33 induced IFN-γ secretion from whole blood, non-pre-complexed, donor #91680",human IL-33 [3],8.79
same,"pIC50, inhibition of 30 ng/mL IL-33 induced IFN-γ secretion from whole blood, non-pre-complexed, donor #91955",human IL-33 [3],9.31
same,"pIC50, inhibition of 30 ng/mL IL-33 induced IFN-γ secretion from whole blood, non-pre-complexed, donor #91986",human IL-33 [3],8.51
same,"pIC50, inhibition of 30 ng/mL IL-33 induced IFN-γ secretion from whole blood, non-pre-complexed, donor #92251",human IL-33 [3],9.13
same,"IC50, inhibition of IL-33 (15 pM) induced superoxide generation from eosinophils, pre-complexed, Mean",human IL-33 [4],19.6 pM
same,"IC50, inhibition of IL-33 (15 pM) induced superoxide generation from eosinophils, pre-complexed, N = 1",human IL-33 [4],21.9 pM
same,"IC50, inhibition of IL-33 (15 pM) induced superoxide generation from eosinophils, pre-complexed, N = 2",human IL-33 [4],23.5 pM
same,"IC50, inhibition of IL-33 (15 pM) induced superoxide generation from eosinophils, pre-complexed, N = 3",human IL-33 [4],16.5 pM
same,"IC50, inhibition of IL-33 (15 pM) induced superoxide generation from eosinophils, pre-complexed, N = 4",human IL-33 [4],25.6 pM
same,"IC50, inhibition of IL-33 (15 pM) induced superoxide generation from eosinophils, pre-complexed, N = 5",human IL-33 [4],14.8 pM
same,"IC50, inhibition of IL-33 (15 pM) induced superoxide generation from eosinophils, pre-complexed, N = 6",human IL-33 [4],10.5 pM
same,"IC50, inhibition of IL-33 (15 pM) induced superoxide generation from eosinophils, pre-complexed, N = 7",human IL-33 [4],24.8 pM
same,"pIC50, inhibition of IL-33 (15 pM) induced superoxide generation from eosinophils, pre-complexed, Mean",human IL-33 [4],10.7
same,"pIC50, inhibition of IL-33 (15 pM) induced superoxide generation from eosinophils, pre-complexed, N = 1",human IL-33 [4],10.7
same,"pIC50, inhibition of IL-33 (15 pM) induced superoxide generation from eosinophils, pre-complexed, N = 2",human IL-33 [4],10.6
same,"pIC50, inhibition of IL-33 (15 pM) induced superoxide generation from eosinophils, pre-complexed, N = 3",human IL-33 [4],10.8
same,"pIC50, inhibition of IL-33 (15 pM) induced superoxide generation from eosinophils, pre-complexed, N = 4",human IL-33 [4],10.6
same,"pIC50, inhibition of IL-33 (15 pM) induced superoxide generation from eosinophils, pre-complexed, N = 5",human IL-33 [4],10.8
same,"pIC50, inhibition of IL-33 (15 pM) induced superoxide generation from eosinophils, pre-complexed, N = 6",human IL-33 [4],11

# Source: patent US20260167710A1 (GlaxoSmithKline, published 2026)
